Entries after “also recorded” stand apart in the source; their conditions may differ.
B1: A331K: modified iCasp9, A331K (protein)
chain: VDGFGDVGALESLRGNADLAYILSMEPCGHCLIINNVNFCRESGLRTRTGSNIDCEKLRRRFSSLHFMVEVKGDLTAKKMVLALLELARQDHGALDCCVVVILSHGCQASHLQFPGAVYGTDGCPVSVEKIVNIFNGTSCPSLGGKPKLFFIQACGGEQKDHGFEVASTSPEDESPGSNPEPDATPFQEGLRTFDQLDKISSLPTPSDIFVSYSTFPGFVSWRDPKSGSWYVETLDDIFEQWAHSEDLQSLLLRVANAVSVKGIYKQMPGCFNFLRKKLFFKTSASRA
B2: ^316ATPF^319AVPI: modified iCasp9, ATPF replaced by SMAC/Diablo AVPI (protein, UniProt P55211 1-416, looked up, variant T317V F319I)
chain: MDEADRRLLRRCRLRLVEELQVDQLWDALLSRELFRPHMIEDIQRAGSGSRRDQARQLIIDLETRGSQALPLFISCLEDTGQDMLASFLRTNRQAAKLSKPTLENLTPVVLRPEIRKPEVLRPETPRPVDIGSGGFGDVGALESLRGNADLAYILSMEPCGHCLIINNVNFCRESGLRTRTGSNIDCEKLRRRFSSLHFMVEVKGDLTAKKMVLALLELAQQDHGALDCCVVVILSHGCQASHLQFPGAVYGTDGCPVSVEKIVNIFNGTSCPSLGGKPKLFFIQACGGEQKDHGFEVASTSPEDESPGSNPEPDAVPIQEGLRTFDQLDAISSLPTPSDIFVSYSTFPGFVSWRDPKSGSWYVETLDDIFEQWAHSEDLQSLLLRVANAVSVKGIYKQMPGCFNFLRKKLFFKTS
modifications: FKBP12-F36V fusion (iCasp9), CARD deleted
B3: T317C: modified iCasp9, T317C (protein)
chain: VDGFGDVGALESLRGNADLAYILSMEPCGHCLIINNVNFCRESGLRTRTGSNIDCEKLRRRFSSLHFMVEVKGDLTAKKMVLALLELARQDHGALDCCVVVILSHGCQASHLQFPGAVYGTDGCPVSVEKIVNIFNGTSCPSLGGKPKLFFIQACGGEQKDHGFEVASTSPEDESPGSNPEPDACPFQEGLRTFDQLDAISSLPTPSDIFVSYSTFPGFVSWRDPKSGSWYVETLDDIFEQWAHSEDLQSLLLRVANAVSVKGIYKQMPGCFNFLRKKLFFKTSASRA
B4: F319A: modified iCasp9, F319A (protein, UniProt P55211 1-416, looked up, variant F319A)
chain: MDEADRRLLRRCRLRLVEELQVDQLWDALLSRELFRPHMIEDIQRAGSGSRRDQARQLIIDLETRGSQALPLFISCLEDTGQDMLASFLRTNRQAAKLSKPTLENLTPVVLRPEIRKPEVLRPETPRPVDIGSGGFGDVGALESLRGNADLAYILSMEPCGHCLIINNVNFCRESGLRTRTGSNIDCEKLRRRFSSLHFMVEVKGDLTAKKMVLALLELAQQDHGALDCCVVVILSHGCQASHLQFPGAVYGTDGCPVSVEKIVNIFNGTSCPSLGGKPKLFFIQACGGEQKDHGFEVASTSPEDESPGSNPEPDATPAQEGLRTFDQLDAISSLPTPSDIFVSYSTFPGFVSWRDPKSGSWYVETLDDIFEQWAHSEDLQSLLLRVANAVSVKGIYKQMPGCFNFLRKKLFFKTS
modifications: FKBP12-F36V fusion (iCasp9), CARD deleted
B5: T317A: modified iCasp9, T317A (protein)
chain: VDGFGDVGALESLRGNADLAYILSMEPCGHCLIINNVNFCRESGLRTRTGSNIDCEKLRRRFSSLHFMVEVKGDLTAKKMVLALLELARQDHGALDCCVVVILSHGCQASHLQFPGAVYGTDGCPVSVEKIVNIFNGTSCPSLGGKPKLFFIQACGGEQKDHGFEVASTSPEDESPGSNPEPDAAPFQEGLRTFDQLDAISSLPTPSDIFVSYSTFPGFVSWRDPKSGSWYVETLDDIFEQWAHSEDLQSLLLRVANAVSVKGIYKQMPGCFNFLRKKLFFKTSASRA
B6: A316G: modified iCasp9, A316G (protein)
chain: VDGFGDVGALESLRGNADLAYILSMEPCGHCLIINNVNFCRESGLRTRTGSNIDCEKLRRRFSSLHFMVEVKGDLTAKKMVLALLELARQDHGALDCCVVVILSHGCQASHLQFPGAVYGTDGCPVSVEKIVNIFNGTSCPSLGGKPKLFFIQACGGEQKDHGFEVASTSPEDESPGSNPEPDGTPFQEGLRTFDQLDAISSLPTPSDIFVSYSTFPGFVSWRDPKSGSWYVETLDDIFEQWAHSEDLQSLLLRVANAVSVKGIYKQMPGCFNFLRKKLFFKTSASRA
B7: D330E: modified iCasp9, D330E (protein)
chain: VDGFGDVGALESLRGNADLAYILSMEPCGHCLIINNVNFCRESGLRTRTGSNIDCEKLRRRFSSLHFMVEVKGDLTAKKMVLALLELARQDHGALDCCVVVILSHGCQASHLQFPGAVYGTDGCPVSVEKIVNIFNGTSCPSLGGKPKLFFIQACGGEQKDHGFEVASTSPEDESPGSNPEPDATPFQEGLRTFDQLEAISSLPTPSDIFVSYSTFPGFVSWRDPKSGSWYVETLDDIFEQWAHSEDLQSLLLRVANAVSVKGIYKQMPGCFNFLRKKLFFKTSASRA
B8: D330N: modified iCasp9, D330N (protein)
chain: VDGFGDVGALESLRGNADLAYILSMEPCGHCLIINNVNFCRESGLRTRTGSNIDCEKLRRRFSSLHFMVEVKGDLTAKKMVLALLELARQDHGALDCCVVVILSHGCQASHLQFPGAVYGTDGCPVSVEKIVNIFNGTSCPSLGGKPKLFFIQACGGEQKDHGFEVASTSPEDESPGSNPEPDATPFQEGLRTFDQLNAISSLPTPSDIFVSYSTFPGFVSWRDPKSGSWYVETLDDIFEQWAHSEDLQSLLLRVANAVSVKGIYKQMPGCFNFLRKKLFFKTSASRA
B9: D330V: modified iCasp9, D330V (protein)
chain: VDGFGDVGALESLRGNADLAYILSMEPCGHCLIINNVNFCRESGLRTRTGSNIDCEKLRRRFSSLHFMVEVKGDLTAKKMVLALLELARQDHGALDCCVVVILSHGCQASHLQFPGAVYGTDGCPVSVEKIVNIFNGTSCPSLGGKPKLFFIQACGGEQKDHGFEVASTSPEDESPGSNPEPDATPFQEGLRTFDQLVAISSLPTPSDIFVSYSTFPGFVSWRDPKSGSWYVETLDDIFEQWAHSEDLQSLLLRVANAVSVKGIYKQMPGCFNFLRKKLFFKTSASRA
B10: D330G: modified iCasp9, D330G (protein)
chain: VDGFGDVGALESLRGNADLAYILSMEPCGHCLIINNVNFCRESGLRTRTGSNIDCEKLRRRFSSLHFMVEVKGDLTAKKMVLALLELARQDHGALDCCVVVILSHGCQASHLQFPGAVYGTDGCPVSVEKIVNIFNGTSCPSLGGKPKLFFIQACGGEQKDHGFEVASTSPEDESPGSNPEPDATPFQEGLRTFDQLGAISSLPTPSDIFVSYSTFPGFVSWRDPKSGSWYVETLDDIFEQWAHSEDLQSLLLRVANAVSVKGIYKQMPGCFNFLRKKLFFKTSASRA
B11: D330S: modified iCasp9, D330S (protein)
chain: VDGFGDVGALESLRGNADLAYILSMEPCGHCLIINNVNFCRESGLRTRTGSNIDCEKLRRRFSSLHFMVEVKGDLTAKKMVLALLELARQDHGALDCCVVVILSHGCQASHLQFPGAVYGTDGCPVSVEKIVNIFNGTSCPSLGGKPKLFFIQACGGEQKDHGFEVASTSPEDESPGSNPEPDATPFQEGLRTFDQLSAISSLPTPSDIFVSYSTFPGFVSWRDPKSGSWYVETLDDIFEQWAHSEDLQSLLLRVANAVSVKGIYKQMPGCFNFLRKKLFFKTSASRA
B12: L329E: modified iCasp9, L329E (protein)
chain: VDGFGDVGALESLRGNADLAYILSMEPCGHCLIINNVNFCRESGLRTRTGSNIDCEKLRRRFSSLHFMVEVKGDLTAKKMVLALLELARQDHGALDCCVVVILSHGCQASHLQFPGAVYGTDGCPVSVEKIVNIFNGTSCPSLGGKPKLFFIQACGGEQKDHGFEVASTSPEDESPGSNPEPDATPFQEGLRTFDQEDAISSLPTPSDIFVSYSTFPGFVSWRDPKSGSWYVETLDDIFEQWAHSEDLQSLLLRVANAVSVKGIYKQMPGCFNFLRKKLFFKTSASRA
B13: S183A: modified iCasp9, S183A (protein)
chain: VDGFGDVGALESLRGNADLAYILSMEPCGHCLIINNVNFCRESGLRTRTGANIDCEKLRRRFSSLHFMVEVKGDLTAKKMVLALLELARQDHGALDCCVVVILSHGCQASHLQFPGAVYGTDGCPVSVEKIVNIFNGTSCPSLGGKPKLFFIQACGGEQKDHGFEVASTSPEDESPGSNPEPDATPFQEGLRTFDQLDAISSLPTPSDIFVSYSTFPGFVSWRDPKSGSWYVETLDDIFEQWAHSEDLQSLLLRVANAVSVKGIYKQMPGCFNFLRKKLFFKTSASRA

System: HEK293T/16 cells
Assay: Secreted alkaline phosphatase (SEAP)-based surrogate killing assay of iCasp9 mutants
Format: cell-based, human
Conditions: SEAP assay without AP1903
Method: Early passage HEK293T/16 cells (ATCC, Manassas, Va.) were maintained in IMDM, GlutaMAX™ (Life Technologies, Carlsbad, Calif.) supplemented with 10% FBS, 100 U/mL penicillin, and 100 […] until transfection in a humidified, 37° C., 5% CO2/95% air atmosphere. Cells in logarithmic-phase growth were transiently transfected with 800 ng to 2 μg of expression plasmid encoding iCasp9 mutants and 500 ng of an expression plasmid encoding SRα promoter driven SEAP per million cells in 15-mL conical tubes. […] GeneJammer® Transfection Reagent at a ratio of 3 μl per ug of plasmid DNA was used to transiently transfect HEK293T/16 cells in the absence of antibiotics. 100 μl or 2 mL of the transfection mixture was added to each well in 96-well or 6-well plate, respectively.
Briefly, after 65° C. heat denaturation for 45 minutes to reduce background caused by endogenous (and serum-derived) alkaline phosphatases that are sensitive to heat, 5 μl of supernatants was added to 95 μl of PBS and added to 100 μl of substrate buffer, containing 1 μl of 100 mM 4-methylumbelliferyl phosphate (4-MUP; Sigma, St. Louis, Mo.) re-suspended in 2 M diethanolamine. Hydrolysis of 4-MUP by SEAP produces a fluorescent […] with excitation/emission (355/460 nm), which can be easily measured. Assays were performed in black opaque 96-well plates to minimize fluorescence leakage between wells. […] of the mixture was seeded onto each well of a 96-well plate. […] For the assay, 4-methylumbelliferyl phosphate substrate was hydrolyzed by SEAP to 4-methylumbelliferon, a metabolite that can be excited with 364 nm and detected with an emission filter of 448 nm. Since SEAP is used as a marker for cell viability, reduced SEAP reading corresponds with increased iCaspase-9 activities.

Row | Molecule | Basal Activity (relative to wild type/unmodified Caspase-9)
1 | B1 | did not lower basal activity; also recorded: Increased
2 | B2 | no effect
3 | B3 | no effect
4 | B4 | no effect
5 | B5 | lower basal activity; also recorded: reduce basal activity; also recorded: Decreased
6 | B6 | lower basal activity; also recorded: Decreased
7 | B7 | less basal activity than wild type Caspase-9; also recorded: Decreased
8 | B8 | less basal activity than wild type Caspase-9; also recorded: Decreased
9 | B9 | less basal activity than wild type Caspase-9; also recorded: Decreased
10 | B10 | less basal activity than wild type Caspase-9; also recorded: Decreased
11 | B11 | less basal activity than wild type Caspase-9; also recorded: Decreased
12 | B12 | Decreased
13 | B13 | Decreased

Source: US20230065562A1, “DUAL CONTROLS FOR THERAPEUTIC CELL ACTIVATION OR ELIMINATION” (Bellicum Pharmaceuticals, Inc., priority 2015, published 2023)
